Results from paper PMC8834691, “Deletion of Specific Conserved Motifs from the N-Terminal Domain of αB-Crystallin Results in the Activation of Chaperone Functions” (International Journal of Molecular Sciences, 2022).

Molecular target: the molecule itself
Assay: SEC-MALS; 0.1 mg protein in 0.25 mL phosphate buffer, incubated at 37 °C for 1 h; TSK G5000PWXL column, 0.75 mL/min; subunits per oligomer = oligomeric mass divided by subunit mass

B1: αB-crystallin with residues 54–61 deleted (natural protein, human, UniProt P02511 1-175, looked up)
chain: MDIAIHHPWIRRPFFPFHSPSRLFDQFFGEHLLESDLFPTSTSLSPFYLRPPSDTGLSEMRLEKDRFSVNLDVKHFSPEELKVKVLGDVIEVHGKHEERQDEHGFISREFHRKYRIPADVDPLTITSSLSSDGVLTVNGPRKQVSGPERTIPITREEKPAVTAAPKK
notes: Polydisperse homo-oligomer (average molar mass 262 kDa by MALS); also called αBΔ54–61; αB∆54–61; source: E. coli BL21(DE3) pLysS, purified (45% ammonium sulfate precipitation, Superdex G200 gel filtration)
- binding result: binds

B2: wild-type αB-crystallin (natural protein, human, UniProt P02511 1-175, looked up)
chain: MDIAIHHPWIRRPFFPFHSPSRLFDQFFGEHLLESDLFPTSTSLSPFYLRPPSFLRAPSWFDTGLSEMRLEKDRFSVNLDVKHFSPEELKVKVLGDVIEVHGKHEERQDEHGFISREFHRKYRIPADVDPLTITSSLSSDGVLTVNGPRKQVSGPERTIPITREEKPAVTAAPKK
notes: αB-crystallin, human, wild type, recombinant; called full-length αB-WT; Polydisperse homo-oligomer (average molar mass 558 kDa by MALS); also called αB-WT; WT-αB; source: E. coli BL21(DE3) pLysS, purified (45% ammonium sulfate precipitation, Superdex G200 gel filtration)
- binding result: binds

B3: αB-crystallin with residues 21–28 and 54–61 deleted (natural protein, human, UniProt P02511 1-175, looked up)
chain: MDIAIHHPWIRRPFFPFHSPGEHLLESDLFPTSTSLSPFYLRPPSDTGLSEMRLEKDRFSVNLDVKHFSPEELKVKVLGDVIEVHGKHEERQDEHGFISREFHRKYRIPADVDPLTITSSLSSDGVLTVNGPRKQVSGPERTIPITREEKPAVTAAPKK
notes: Gene from GenScript in pET23a(+), without the C-terminal His-tag; the in-frame T7 tag was removed by PCR; Small homo-oligomer, average molar mass 85 kDa, on average close to four subunits; also called αBΔ21–28, Δ54–61; αB∆21–28, ∆54–61; source: E. coli BL21(DE3) pLysS, purified (45% ammonium sulfate precipitation, Superdex G200 gel filtration)
- stoichiometry N: ~4 subunits per oligomer
